From US20130217572A1, “SPECIFIC DELIVERY OF AGROCHEMICALS” (VRIJE UNIVERSITEIT BRUSSEL, priority 2010, published 2013)
Blank lines part the entries; values can stand above or below the molecule they belong to.

Assays:
potato lectin (Sigma) [1] = biological target: T1, potato lectin (Sigma) (potato, UniProt Q9S8M0 23-323); test: microcapsule retention; C: carboxyl capsules, EDC/Sulfo-NHS, 1 ug VHH/cm2; potato lectin coat 1 ug/ml; 100% coverage
T1 construct: Bought glycoprotein, coated on ELISA plates
T1 sequence (looked up): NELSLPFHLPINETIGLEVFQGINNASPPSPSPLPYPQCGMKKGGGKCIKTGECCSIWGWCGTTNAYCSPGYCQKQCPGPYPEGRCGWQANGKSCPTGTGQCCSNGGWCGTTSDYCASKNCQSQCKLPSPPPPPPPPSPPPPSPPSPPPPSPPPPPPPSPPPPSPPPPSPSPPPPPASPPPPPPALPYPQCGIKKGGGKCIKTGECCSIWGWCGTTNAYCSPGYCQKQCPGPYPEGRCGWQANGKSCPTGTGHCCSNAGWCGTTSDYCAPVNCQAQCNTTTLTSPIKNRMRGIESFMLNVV

potato lectin (Sigma) [2] = biological target: T1, potato lectin (Sigma); test: microcapsule retention; H: amine capsules, BS3 one-step, 0.1 ug VHH/cm2; potato lectin coat 10 ug/ml; 100% coverage
potato lectin (Sigma) [3] = biological target: T1, potato lectin (Sigma); test: microcapsule retention; K: amine capsules, BS3 two-step, 1 ug VHH/cm2; potato lectin coat 1 ug/ml; 100% coverage
potato lectin (Sigma) [4] = biological target: T1, potato lectin (Sigma); test: microcapsule retention; G: amine capsules, BS3 one-step, 1 ug VHH/cm2; potato lectin coat 100 ug/ml; 100% coverage
potato lectin (Sigma) [5] = biological target: T1, potato lectin (Sigma); test: microcapsule retention; C: carboxyl capsules, EDC/Sulfo-NHS, 1 ug VHH/cm2; potato lectin coat 1 ug/ml; 10% coverage
potato lectin (Sigma) [6] = biological target: T1, potato lectin (Sigma); test: microcapsule retention; G: amine capsules, BS3 one-step, 1 ug VHH/cm2; potato lectin coat 10 ug/ml; 100% coverage
potato lectin (Sigma) [7] = biological target: T1, potato lectin (Sigma); test: microcapsule retention; G: amine capsules, BS3 one-step, 1 ug VHH/cm2; potato lectin coat 1 ug/ml; 100% coverage
potato lectin (Sigma) [8] = biological target: T1, potato lectin (Sigma); test: microcapsule retention; D: carboxyl capsules, EDC/Sulfo-NHS, 0.1 ug VHH/cm2; potato lectin coat 10 ug/ml; 10% coverage
[9] = test system: intact living potato pot plants; test: VHH binding to intact living plants; set-up: species or system potato (variety Désirée); conditions: leaves attached to potato pot plant submerged in VHH solution in PBS, 1 hour
Protocol: Binding of VHH to intact living plants was investigated on potato pot plants (variety Désirée). Compound leaves of intact living plants were submersed in solutions of hexahistidine-tagged VHH in PBS, or PBS alone for control conditions, leaving the compound leaves attached to the plants. VHH were allowed to bind for 1 hour. Next, the compound leaves still attached to the plants were washed five times in PBS in Erlenmeyer flasks. Different leaves and petiole sections were sampled. Bound VHH were detected by incubation with monoclonal mouse anti-histidine antibodies directly conjugated with Alexa-488 fluorescent dye (Abd Serotec) in PBS for 1 hour. Unbound anti-histidine antibodies were removed by washing five times with PBS. Whole leaves, leaf discs, or petiole sections were analyzed for bound VHH with microscopy.

unrelated antigens [10] = test: VHH-coupled Uvitex OB microcapsules retained on wells coated with unrelated antigen; 4% surface coverage
unrelated antigens [11] = test: VHH-coupled Uvitex OB microcapsules retained on wells coated with unrelated antigen; 100% surface coverage
potato lectin = biological target: T2, potato lectin (Solanum tuberosum, UniProt Q9S8M0); test: VHH binding to potato lectin in ELISA; conditions: blank wells; VHH 3 μg/ml
T2 sequence (Q9S8M0 23-323): T1 sequence (looked up)
Protocol: ELISA plates (Maxisorp, Nunc) coated with 100 μl per well 100 μg/ml potato lectin (Sigma) in PBS were coated at 4° C. overnight and coating was continued at room temperature for 1 hour on the next day. Plates were washed three times with PBS/0.05%-TWEEN®-20 and blocked with 5% skimmed milk in PBS for 1 hour. VHH (3 μg/ml) were transferred to the potato lectin-coated plates and VHH antibody fragments were allowed to bind for 1 hour at room temperature. Bound VHH were detected with sequential incubations with monoclonal mouse anti-histidine antibodies (Abd Serotec) and rabbit anti-mouse IgG whole molecule antibodies conjugated with alkaline phosphatase (RaM/AP) (Sigma) in 1% MPBS/0.05%-TWEEN®-20. Unbound antibodies were removed by washing three times with PBS/0.05%-TWEEN®-20 after each antibody incubation. The plates were washed an additional two times with PBS and 100 μl pNPP disodium hexahydrate substrate (Sigma) was added to each well and the absorbance at 405 nm was measured (see Table 2).

potato lectin (Sigma) [12] = biological target: T1, potato lectin (Sigma); test: VHH-coupled Uvitex microcapsules on potato lectin-coated wells; 25-fold less microcapsules applied
Protocol: An ELISA-like assay was performed using high bind half area microplates (Greiner Bio-One) coated with 5 μg/well potato lectin. Control wells included blank wells or wells coated with unrelated antigens. Plates were washed three times with PBS with 0.05%-TWEEN®-20 and blocked with 5% skimmed milk in PBS for 1 to 2 hours. VHH-coupled Uvitex-containing microcapsules were diluted to appropriate densities in 1% skimmed milk in PBS with 0.05%-TWEEN®-20. Five-fold serial dilution series were prepared and allowed to bind to the surface to compare binding of microcapsules coupled with monovalent or bivalent VHH. Microcapsules were added to the antigen-coated or control wells and allowed to bind for 1 hour. Unbound microcapsules were removed by washing five times with PBS with 0.05%-TWEEN®-20. The bottoms of ELISA plate wells were analyzed for bound microcapsules on a macrozoom microscope system (Nikon). Microcapsules were counted using Volocity image analysis software (Perkin Elmer). A DAPI filter was used to visualize Uvitex microcapsules.
The surface area of microcapsules with coupled bivalent VHH was 15-fold above the surface area of blank microcapsules applied at this microcapsule density while the surface area of microcapsules with monovalent VHH was only six-fold above the surface area of blank microcapsules applied at this microcapsule density. […]

microcapsule counts (microcapsules) (potato lectin (Sigma) [1]): 193
microcapsule counts (microcapsules) (potato lectin (Sigma) [2]): 780
microcapsule counts (microcapsules) (potato lectin (Sigma) [3]): 617
microcapsule counts (microcapsules) (potato lectin (Sigma) [4]): 150
microcapsule counts (microcapsules) (potato lectin (Sigma) [5]): 49
microcapsule counts (microcapsules) (potato lectin (Sigma) [6]): 104
microcapsule counts (microcapsules) (potato lectin (Sigma) [7]): 46
microcapsule counts (microcapsules) (potato lectin (Sigma) [8]): 118
Molecule: Control VHH

B1: VHH 3E6 (VHH)
VHH: QVQLQESGGGLVQPGGTLSLSCAASGFNVRWYGMGWFRQAPGKEREGVACISALQETTAYADSVKGRFTLSRDNPKNTLSLQMNNLQPEDTGVYYCATTDCDDSSRMTYTSYLGQGTQVTVSS
notes: also called Monovalent VHH 3E6
binding to an intact living plant [9]: binding leaf surface, stomata, glandular trichomes, and leaf hairs
area of bound microcapsules (unrelated antigens [10]): 23.5
area of bound microcapsules (unrelated antigens [11]): 84.5
absorbance at 405 nm (potato lectin): 0.067
fold of surface area above blank microcapsules (potato lectin (Sigma) [12]): 6 fold
